target: GST-LRRK2 WD40 G2385R (human) (UniProt Q5S007); experiment: affinity purification with mass spectrometry; 5 µg GST fusion protein on glutathione-Sepharose incubated with adult mouse brain lysate or crude SV fraction (LP2) (1 mg protein) 2 h at 4 °C; washes 150 mM NaCl, 2 mM EDTA, 50 mM Tris-HCl, 0.2% Triton, pH 7.4; LC-MS/MS with label-free quantification, 4 samples per condition (GST-control, GST-WD40, GST-WD40-G2385R)
Sequence (Q5S007 whole entry G2385R, the tested form may be a part): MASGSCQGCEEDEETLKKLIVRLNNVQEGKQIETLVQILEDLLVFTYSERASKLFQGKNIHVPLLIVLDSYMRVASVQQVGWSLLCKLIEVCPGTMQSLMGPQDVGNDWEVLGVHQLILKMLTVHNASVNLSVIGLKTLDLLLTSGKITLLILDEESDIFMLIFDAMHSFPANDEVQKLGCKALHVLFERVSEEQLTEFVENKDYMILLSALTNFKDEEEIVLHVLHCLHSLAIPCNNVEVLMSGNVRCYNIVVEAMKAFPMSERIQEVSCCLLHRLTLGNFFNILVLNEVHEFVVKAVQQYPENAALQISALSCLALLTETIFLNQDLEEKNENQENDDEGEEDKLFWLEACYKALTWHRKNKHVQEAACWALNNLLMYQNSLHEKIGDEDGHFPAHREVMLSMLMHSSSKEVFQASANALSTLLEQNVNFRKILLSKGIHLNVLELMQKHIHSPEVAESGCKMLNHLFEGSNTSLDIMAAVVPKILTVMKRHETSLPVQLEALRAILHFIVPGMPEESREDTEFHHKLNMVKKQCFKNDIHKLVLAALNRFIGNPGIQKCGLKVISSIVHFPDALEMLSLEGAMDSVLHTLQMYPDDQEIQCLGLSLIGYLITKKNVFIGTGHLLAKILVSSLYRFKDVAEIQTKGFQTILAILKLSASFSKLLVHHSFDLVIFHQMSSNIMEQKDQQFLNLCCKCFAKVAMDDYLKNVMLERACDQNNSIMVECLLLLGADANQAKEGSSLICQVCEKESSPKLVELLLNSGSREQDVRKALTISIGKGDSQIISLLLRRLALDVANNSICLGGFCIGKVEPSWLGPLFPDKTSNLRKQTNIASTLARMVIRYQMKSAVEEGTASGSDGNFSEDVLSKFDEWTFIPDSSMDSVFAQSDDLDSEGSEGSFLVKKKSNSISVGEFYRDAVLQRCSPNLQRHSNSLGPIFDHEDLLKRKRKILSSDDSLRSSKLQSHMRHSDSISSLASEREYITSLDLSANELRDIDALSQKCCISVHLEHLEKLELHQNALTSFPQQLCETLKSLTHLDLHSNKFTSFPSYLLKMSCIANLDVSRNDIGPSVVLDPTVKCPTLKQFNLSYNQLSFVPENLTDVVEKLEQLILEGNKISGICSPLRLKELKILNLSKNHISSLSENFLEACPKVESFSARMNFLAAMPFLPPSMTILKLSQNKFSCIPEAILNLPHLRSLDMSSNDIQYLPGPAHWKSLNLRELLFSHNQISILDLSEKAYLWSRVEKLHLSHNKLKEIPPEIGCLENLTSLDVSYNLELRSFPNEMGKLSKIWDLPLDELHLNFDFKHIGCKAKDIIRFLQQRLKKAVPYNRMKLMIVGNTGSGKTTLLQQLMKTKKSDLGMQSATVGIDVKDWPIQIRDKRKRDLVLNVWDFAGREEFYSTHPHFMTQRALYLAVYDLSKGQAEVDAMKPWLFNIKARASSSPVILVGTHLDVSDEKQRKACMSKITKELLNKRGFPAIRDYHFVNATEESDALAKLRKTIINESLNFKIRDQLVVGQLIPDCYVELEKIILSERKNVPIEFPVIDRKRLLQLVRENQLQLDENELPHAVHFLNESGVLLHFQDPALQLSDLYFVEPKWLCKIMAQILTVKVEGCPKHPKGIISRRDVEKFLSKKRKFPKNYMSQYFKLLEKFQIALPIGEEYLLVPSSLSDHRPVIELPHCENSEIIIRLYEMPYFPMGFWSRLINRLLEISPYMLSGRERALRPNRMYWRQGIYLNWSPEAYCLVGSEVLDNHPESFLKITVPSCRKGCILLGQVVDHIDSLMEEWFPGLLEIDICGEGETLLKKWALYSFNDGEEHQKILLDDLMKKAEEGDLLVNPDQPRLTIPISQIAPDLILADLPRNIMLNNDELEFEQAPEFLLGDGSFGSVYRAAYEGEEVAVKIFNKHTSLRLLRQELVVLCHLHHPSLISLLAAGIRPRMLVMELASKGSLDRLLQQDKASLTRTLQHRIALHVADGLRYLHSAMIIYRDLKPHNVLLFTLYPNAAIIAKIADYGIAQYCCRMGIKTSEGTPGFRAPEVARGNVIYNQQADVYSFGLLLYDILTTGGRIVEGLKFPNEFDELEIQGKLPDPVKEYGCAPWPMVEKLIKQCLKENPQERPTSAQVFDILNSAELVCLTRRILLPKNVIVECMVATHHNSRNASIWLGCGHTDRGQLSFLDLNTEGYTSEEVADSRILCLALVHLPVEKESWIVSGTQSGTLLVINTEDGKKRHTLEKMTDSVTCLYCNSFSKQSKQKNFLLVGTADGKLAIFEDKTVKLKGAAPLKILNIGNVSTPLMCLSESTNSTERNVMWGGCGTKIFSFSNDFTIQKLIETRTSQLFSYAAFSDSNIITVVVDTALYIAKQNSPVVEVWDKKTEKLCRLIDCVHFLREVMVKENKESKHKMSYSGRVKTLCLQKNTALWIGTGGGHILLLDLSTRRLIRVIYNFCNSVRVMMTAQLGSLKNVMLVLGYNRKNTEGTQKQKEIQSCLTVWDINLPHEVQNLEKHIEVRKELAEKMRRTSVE

Sequence of 14-3-3 protein epsilon (P62259 whole entry): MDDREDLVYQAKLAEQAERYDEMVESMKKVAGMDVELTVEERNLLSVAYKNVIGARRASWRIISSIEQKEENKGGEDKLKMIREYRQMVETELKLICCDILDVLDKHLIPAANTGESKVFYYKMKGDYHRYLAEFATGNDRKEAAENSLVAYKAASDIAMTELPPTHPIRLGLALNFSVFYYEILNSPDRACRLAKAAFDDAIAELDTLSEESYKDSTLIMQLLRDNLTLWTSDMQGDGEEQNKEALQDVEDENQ
Sequence of Coronin-1A (O89053 whole entry): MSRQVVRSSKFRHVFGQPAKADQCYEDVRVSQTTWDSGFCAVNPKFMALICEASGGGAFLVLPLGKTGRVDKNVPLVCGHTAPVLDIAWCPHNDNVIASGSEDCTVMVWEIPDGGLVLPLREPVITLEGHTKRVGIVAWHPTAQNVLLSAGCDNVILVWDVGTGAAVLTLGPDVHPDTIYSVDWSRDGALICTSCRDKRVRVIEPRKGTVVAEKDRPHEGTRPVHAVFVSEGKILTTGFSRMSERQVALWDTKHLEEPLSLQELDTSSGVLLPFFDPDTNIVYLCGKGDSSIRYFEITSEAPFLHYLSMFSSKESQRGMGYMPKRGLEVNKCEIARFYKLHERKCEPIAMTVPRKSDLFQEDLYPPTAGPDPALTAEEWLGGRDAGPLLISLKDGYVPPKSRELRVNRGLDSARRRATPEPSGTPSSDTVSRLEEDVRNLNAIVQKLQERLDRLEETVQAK
Sequence of Tubulin alpha-1A chain (P68369 whole entry): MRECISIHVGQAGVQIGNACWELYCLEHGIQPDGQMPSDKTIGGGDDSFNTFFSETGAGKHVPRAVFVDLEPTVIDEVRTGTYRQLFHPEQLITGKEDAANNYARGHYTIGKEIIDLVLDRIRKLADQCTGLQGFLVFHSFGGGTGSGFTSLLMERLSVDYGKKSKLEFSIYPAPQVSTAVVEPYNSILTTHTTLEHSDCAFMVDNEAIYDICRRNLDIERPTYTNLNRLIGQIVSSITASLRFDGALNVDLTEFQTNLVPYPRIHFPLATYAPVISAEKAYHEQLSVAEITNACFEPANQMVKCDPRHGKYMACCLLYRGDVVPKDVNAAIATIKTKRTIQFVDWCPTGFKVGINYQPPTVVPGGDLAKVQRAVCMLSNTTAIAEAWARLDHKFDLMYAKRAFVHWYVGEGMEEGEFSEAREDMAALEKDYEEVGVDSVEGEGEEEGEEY
Sequence of Actin-related protein 2/3 complex subunit 1 A (Q9R0Q6 whole entry, one chain of several): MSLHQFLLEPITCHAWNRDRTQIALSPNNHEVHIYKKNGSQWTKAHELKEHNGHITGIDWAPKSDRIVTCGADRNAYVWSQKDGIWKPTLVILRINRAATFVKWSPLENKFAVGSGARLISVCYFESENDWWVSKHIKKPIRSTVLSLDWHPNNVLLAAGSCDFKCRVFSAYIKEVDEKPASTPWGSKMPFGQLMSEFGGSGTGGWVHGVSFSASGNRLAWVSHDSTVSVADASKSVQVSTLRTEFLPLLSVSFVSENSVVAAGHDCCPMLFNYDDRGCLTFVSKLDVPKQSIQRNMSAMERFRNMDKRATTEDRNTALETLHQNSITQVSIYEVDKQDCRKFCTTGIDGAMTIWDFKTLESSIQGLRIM
Sequence of Dihydropyrimidinase-related protein 1 (P97427 whole entry): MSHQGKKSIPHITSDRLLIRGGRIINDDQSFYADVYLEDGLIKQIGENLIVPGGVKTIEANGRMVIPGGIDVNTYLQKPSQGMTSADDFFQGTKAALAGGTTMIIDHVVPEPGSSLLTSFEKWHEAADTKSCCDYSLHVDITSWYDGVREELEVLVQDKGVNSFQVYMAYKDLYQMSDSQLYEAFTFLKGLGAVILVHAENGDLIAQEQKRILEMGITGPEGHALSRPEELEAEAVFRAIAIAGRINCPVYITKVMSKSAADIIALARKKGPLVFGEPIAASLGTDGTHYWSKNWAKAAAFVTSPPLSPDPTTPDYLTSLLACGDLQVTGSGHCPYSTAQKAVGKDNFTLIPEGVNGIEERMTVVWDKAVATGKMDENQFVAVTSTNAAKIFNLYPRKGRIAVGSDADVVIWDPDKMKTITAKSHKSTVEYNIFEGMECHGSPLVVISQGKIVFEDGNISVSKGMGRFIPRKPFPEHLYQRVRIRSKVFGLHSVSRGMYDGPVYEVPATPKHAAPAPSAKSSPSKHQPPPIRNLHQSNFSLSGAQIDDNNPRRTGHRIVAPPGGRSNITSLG
Sequence of Ras-related protein Rab-1A (P62821 whole entry): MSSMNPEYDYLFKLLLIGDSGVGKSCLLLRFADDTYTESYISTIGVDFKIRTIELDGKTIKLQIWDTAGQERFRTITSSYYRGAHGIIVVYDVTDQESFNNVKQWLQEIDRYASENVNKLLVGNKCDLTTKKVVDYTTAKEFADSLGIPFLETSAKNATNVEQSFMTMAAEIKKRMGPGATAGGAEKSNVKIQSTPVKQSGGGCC

G2385R/WT (ratio of abundance in G2385R versus wild-type bait) | Substance
0.37 | 14-3-3 protein epsilon (from UniProt P62259 1-255) (natural protein)
0.46 | Dihydropyrimidinase-related protein 4 (from UniProt O35098 1-572) (natural protein)
0.5 | F-actin-capping protein subunit alpha-2 (from UniProt P47754 1-286) (natural protein)
0.53 | Tubulin alpha-4A chain (from UniProt P68368 1-448) (natural protein)

Further lines, the substance ahead of its results:

Substance | G2385R/WT (ratio of abundance in G2385R versus wild-type bait)
AP-2 complex subunit alpha-1 (from UniProt P17426 1-977) (natural protein) | 0.44
Actin-related protein 2/3 complex subunit 1 A (from UniProt Q9R0Q6 1-370) (natural protein) | 0.26
Coronin-1A (from UniProt O89053 1-461) (natural protein) | 0.37
Dihydropyrimidinase-related protein 1 (from UniProt P97427 1-572) (natural protein) | 0.42
Ras-related protein Rab-1A (from UniProt P62821 1-205) (natural protein) | 0.62
Synapsin-2 (from UniProt Q64332 1-586) (natural protein) | 0.53
Tubulin alpha-1A chain (from UniProt P68369 1-451) (natural protein) | 0.49
Tubulin beta-4A chain (from UniProt Q9D6F9 1-444) (natural protein) | 0.39
Tubulin beta-4B chain (from UniProt P68372 1-445) (natural protein) | 0.49

From publication PMC5511190
